In data set [1] the target is GST-RB (source of Rb protein substrate).
Data set [2] addresses cdk6 (UniProt Q64261 1-326). The data set is described as follows: co-immunoprecipitation and immunoblotting, NIH 3T3 cell lysates. The method, then: (§1) TBS was Tris-buffered saline containing 0.1% (w/v) sodium dodecyl sulfate. Samples were pre-cleared with Protein-G beads (GIBCO, Grand Island, N.Y.) and either normal rabbit or mouse serum (each at a 1:1000 dilution). Immunoprecipitation of cyclin D1 was carried out for 12 hours at 4° C. Immune complexes were precipitated using 1 to 5 micrograms of antibody and Protein-G agarose, and were then heated at 95° C. for 5 minutes in IP buffer, which comprised 93 millimolar Tris, 3% (w/v) SDS, 1.1 millimolar β-mercaptoethanol, 0.03% (w/v) bromophenol blue (BPB), and 15% (v/v) glycerol (SIGMA, Saint Louis, Mo.) at a pH of 6.8. The eluant was analyzed using a denaturing, reducing SDS-PAGE gel, and the contents of the gel were transferred to supported nitrocellulose filter by electroblotting. Filters were incubated with 1 to 5 micrograms of an antibody which binds specifically with one of the following: cyclin D1, cdk4, cdk6, PCNA, and p21. Horseradish peroxidase-linked anti-mouse or anti-rabbit whole antibody was used as a secondary antibody. Chemiluminescence was detected using an ECL™ kit (Amersham Life Science, Arlington Heights, Ill.) according to the manufacturer's instruction.
(§2) An increased level of cyclin D1 protein was detected by immunoprecipitation in lysates from NIH 3T3 cells transfected with PCMV-MCT-1, relative to asynchronously grown control cells which were not transfected or which were transfected with control vector. Because cdk4 and cdk6 associate with cyclin D1 during cell cycle progression, complex formation among these molecules was investigated using co-immunoprecipitation analysis. Increased subunit complex formation in NIH 3T3 cells constitutively expressing MCT-1, relative to cells which were not transfected with a vector encoding MCT-1. Physical interaction of PCNA with cyclin D1-cdk4/cdk6 complexes was also investigated. Co-immunoprecipitation of cyclin D1 and PCNA was detected at an increased level, relative to cells which were not transfected with a vector encoding MCT-1. Direct physical interaction was not detected between MCT-1 and any of proteins cyclin D1, cdk4, cdk6, and PCNA under these assay conditions.
On the technique in general: A western blot detects proteins with antibodies after separation by electrophoresis.

Data set [3] has as its target T1, cdk4 (UniProt P30285 2-303).
T1 sequence (looked up): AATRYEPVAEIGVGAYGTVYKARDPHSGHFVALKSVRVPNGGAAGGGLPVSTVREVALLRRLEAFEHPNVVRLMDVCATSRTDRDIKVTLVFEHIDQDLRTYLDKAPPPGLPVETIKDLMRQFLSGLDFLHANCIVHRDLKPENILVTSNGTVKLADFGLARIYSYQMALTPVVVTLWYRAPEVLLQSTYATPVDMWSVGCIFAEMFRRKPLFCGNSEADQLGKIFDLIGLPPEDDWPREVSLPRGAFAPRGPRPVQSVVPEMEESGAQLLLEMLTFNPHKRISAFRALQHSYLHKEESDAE
The description is as above. As for the experimental part: as §1, §2

For data set [4], the target named is T2, cyclin D1 (UniProt P25322 1-295).
T2 construct: Immunoprecipitated from NIH 3T3 lysates
T2 sequence (P25322 whole entry): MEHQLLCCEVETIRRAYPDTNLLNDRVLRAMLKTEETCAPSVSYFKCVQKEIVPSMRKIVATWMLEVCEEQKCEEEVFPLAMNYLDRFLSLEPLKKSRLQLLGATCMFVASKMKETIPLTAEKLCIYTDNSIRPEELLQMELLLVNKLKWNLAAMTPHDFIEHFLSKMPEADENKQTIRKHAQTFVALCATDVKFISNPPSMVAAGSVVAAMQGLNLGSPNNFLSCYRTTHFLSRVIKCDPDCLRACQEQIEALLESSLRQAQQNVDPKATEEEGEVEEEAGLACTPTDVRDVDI
Described as above. The method, then:
as §1, §2

For data set [5], the target named is PCNA (UniProt P17918 1-261). Described as above. As for the experimental part:
as §1, §2

Sequence of PCNA (P17918 whole entry): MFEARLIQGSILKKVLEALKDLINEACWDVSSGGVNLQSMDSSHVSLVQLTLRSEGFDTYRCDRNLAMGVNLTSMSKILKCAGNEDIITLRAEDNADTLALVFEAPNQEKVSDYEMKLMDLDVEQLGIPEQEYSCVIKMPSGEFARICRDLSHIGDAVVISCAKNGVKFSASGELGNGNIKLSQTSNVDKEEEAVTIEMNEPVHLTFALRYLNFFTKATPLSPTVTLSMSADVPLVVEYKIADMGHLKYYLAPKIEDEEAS

B1: cdk6 (protein)
chain: MEKDSLSRADQQYECVAEIGEGAYGKVFKARDLKNGGRFVALKRVRVQTSEEGMPLSTIREVAVLRHLETFEHPNVVRLFDVCTVSRTDRETKLTLVFEHVDQDLTTYLDKVPEPGVPTETIKDMMFQLLRGLDFLHSHRVVHRDLKPQNILVTSSGQIKLADFGLARIYSFQMALTSVVVTLWYRAPEVLLQSSYATPVDLWSVGCIFAEMFRRKPLFRGSSDVDQLGKILDIIGLPGEEDWPRDVALPRQAFHSKSAQPIEKFVTDIDELGKDLLLKCLTFNPAKRISAYGALNHPYFQDLERYKDNLNSHLPSNQSTSELNTA
Consider B1, for which, in data set [1], the “in vitro immune complex kinase assay (32P phosphorylation of Rb protein)” value was “A markedly increased ability to phosphorylate Rb protein”.

B2: MCT-1 (Multiple Copies in T-cell malignancy) protein (other)
chain: MFKKFDEKENVSNCIQLKTSVIKGIKNQLIEQFPGIEPWLNQIMPKKDPVKIVRCHEHIEILTVNGELLFFRQREGPFYPTLRLLHKYPFILPHQQVDKGAIKFVLSGANIMCPGLTSPGAKLYPAAVDTIVAIMAEGKQHALCVGVMKMSAEDIEKVNKGIGIENIHYLNDGLWHMKTYK
notes: Expressed from the full length MCT-1 cDNA (pCMV-MCT-1) in stably transfected NIH 3T3 fibroblasts and tested in cell lysates
In the case of B2, the binding result in data set [2], in data set [3], in data set [4] and in data set [5] was “no binding” throughout.

B3: cdk4 (protein)
chain: AATRYEPVAEIGVGAYGTVYKARDPHSGHFVALKSVRVPNGGAAGGGLPVSTVREVALLRRLEAFEHPNVVRLMDVCATSRTDRDIKVTLVFEHIDQDLRTYLDKAPPPGLPVETIKDLMRQFLSGLDFLHANCIVHRDLKPENILVTSNGTVKLADFGLARIYSYQMALTPVVVTLWYRAPEVLLQSTYATPVDMWSVGCIFAEMFRRKPLFCGNSEADQLGKIFDLIGLPPEDDWPREVSLPRGAFAPRGPRPVQSVVPEMEESGAQLLLEMLTFNPHKRISAFRALQHSYLHKEESDAE
For B3, the “in vitro immune complex kinase assay (32P phosphorylation of Rb protein)” value in data set [1] is reported as “A markedly increased ability to phosphorylate Rb protein”.

These data come from patent US7811561 (dated 2010).
